{
  "source": "the nanobody polyreactivity screen of Harvey et al. (2022)",
  "data": [
    {"assay": "yeast display, Sf9 membrane polyspecificity reagent, FACS + sequencing; frameworks hold sequencing errors", "how_it_was_run": "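A synthetic nanobody library was expressed on Saccharomyces cerevisiae BJ5465 by galactose induction for 36–48 hours. The library was stained for 1 hour at 4 °C with 10% biotinylated, detergent-solubilized Sf9 membrane reagent and enriched with streptavidin microbeads before FACS. Low and high (top ~1%) gates were set on anti-HA fluorescence for expression and streptavidin fluorescence for reagent binding, and each polyreactivity label reflects the gate of origin.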", "values": [
      {"sequence": "QVQLVESGGGLVQAGGSLRLSCAASGFTFVTNAMGWYRQAPGKERELVAAISRRGGSTYYADSVKGRFTISRDNAKNTVDLQMNSLKPEDTPVYYCNADRQRRRQFSFSSPYDYWGQGTQVTVSS", "polyreactivity (PSR sort gate)": "high polyreactivity"},
      {"sequence": "QVQLVESGGGLVQAGGSLRLSCAASGFTFVVYTMGWYRQAPGKEREFVAVISESGGSTYYADSVKGRFTISRDNAKNTVYLQMNSLKPEDTAVYYCAARTRYYRDNYWGQVTQVTVSS", "polyreactivity (PSR sort gate)": "high polyreactivity"},
      {"sequence": "QVQLVESGGGLVQAGGSLRLSCAASGFTFVWNARGWYRQAPGKERELVAVISYSGGSTYYADSVKGRFTISRDNAKNTVYLQMNSLKPEETAVDYCAAEFVTYYSSSKRAYYYWGQGTLVTVSS", "polyreactivity (PSR sort gate)": "high polyreactivity"},
      {"sequence": "QVQLVESGGGLVQAGGSLRLSCAASGFTFVWYAMGWYRQAPGKERELVAAISRRGTRTYYADSVKGRFTISRDNAKNTVYLQMNSLKPEDTAVYYCAASPWGGYGYWGQGTQVTLSS", "polyreactivity (PSR sort gate)": "high polyreactivity"},
      {"sequence": "QVQLVESGGGLVQAGGSLRLSCAASGFTFVYYAMGWYRQAPGKEREFVAAISLSGGSTYYADSVKGRFTISRDNAKNTVYLQMNSLKPEDTAVYYCATDWSLRIERDYGYWGQGTQVTVSS", "polyreactivity (PSR sort gate)": "low polyreactivity"},
      {"sequence": "QVQLVESGGGLVQAGGSLRLSCAASGFTFVYYAMGWYRQAPGKERELVAAIRSGGSTNYADSVKGRFTISRDNAKNTVYLQMNSLKPEDTAVYYCAAAYWKGRLVRYYYWGQGTQVTVSS", "polyreactivity (PSR sort gate)": "high polyreactivity"},
      {"sequence": "QVQLVESGGGLVQAGGSLRLSCAASGFTFVYYAMGWYRQAPGKERELVAAISGRGGSTYYADSVKGRFTISRDNAKNTVYLQMNSLKPEDTAVYYCATTYSWYYVPDKTHIYYYWGQGTQVTVSS", "polyreactivity (PSR sort gate)": "low polyreactivity"},
      {"sequence": "QVQLVESGGGLVQAGGSLRLSCAASGFTFVYYAMGWYRQAPGKERELVAAISTRGGSTYYADSVKGRFTISRDNAKNTVYLQMTSLKPEDTAVYYCAARSYPPGLRFDYWGQGTQVTVSS", "polyreactivity (PSR sort gate)": "high polyreactivity"},
      {"sequence": "QVQLVESGGGLVQAGGSLRLSCAASGFTFVYYAMGWYRQEPGKERELVAAISRSGGSTYYADSVKGRFTISRDNAKNTVYLQMNSLKPEDTEVYYCAAVTYANYYYDAYYYWGQGTQVTVSS", "polyreactivity (PSR sort gate)": "high polyreactivity"},
      {"sequence": "QVQLVESGGGLVQAGGSLRLSCAASGFTFVYYVMGRYRPAPGKERDLVAAINAGGGSTYYADSVKGRFTISRDNAKNTVYLQMNSLKPEDTSVYYCAARYHTSTRPCRNYWGQGTQVTVSS", "polyreactivity (PSR sort gate)": "high polyreactivity"},
      {"sequence": "QVQLVESGGGLVQAGGSLRLSCAASGFTFWAYTMGWYRQAPGKERELVAAITRSGGRTYYADSVKGRFTISRDNAKNTVYLQLNSLKPEDTAVYYCAAKIWSKDEKHDYWGQGTQVTGSS", "polyreactivity (PSR sort gate)": "high polyreactivity"},
      {"sequence": "QVQLVESGGGLVQAGGSLRLSCAASGFTFWEYALGWYRQAPGKERELVAAISRGTSTYYADSVKGRFTIPRDNAKNTVYLQMNSLKPEDTAVYYCAARQDPPLGYDYWGQGTQVTVSS", "polyreactivity (PSR sort gate)": "low polyreactivity"},
      {"sequence": "QVQLVESGGGLVQAGGSLRLSCAASGFTFWEYAMGWYRQAPGKERELVAAISSRGTRTYYADSVKGRFTISRDNAKNTVYLQMNSLKPEDTAVYYCATAIPDPDYIHNYWGQGTQVTVSS", "polyreactivity (PSR sort gate)": "high polyreactivity"},
      {"sequence": "QVQLVESGGGLVQAGGSLRLSCAASGFTFWKYAMGWYRQAPGKERELVAAISWSGGNTYYADSVKGRFTISRDNAKNTVYLQMNSLKPEDTAVYYCAAVYTPQNQFRYKYYYWGQGTQVTVSS", "polyreactivity (PSR sort gate)": "high polyreactivity"},
      {"sequence": "QVQLVESGGGLVQAGGSLRLSCAASGFTFWLYAMGWYRQAPGKEREFVAAISTSGGSTYADSVKGRFTISRDNAKNTVYLQMNSLKPEDTAVYYCNADPTTTTYRHQYNYWGQGTQVTVSS", "polyreactivity (PSR sort gate)": "low polyreactivity"},
      {"sequence": "QVQLVESGGGLVQAGGSLRLSCAASGFTFWRYALGWYRQAPGKETEFVASITWSGGSTYYADSVKGRFTISRDNAKNTVYLQMNRLQPEDTAVYYCAAVARTSGIKYYYWGQGTQVTVSS", "polyreactivity (PSR sort gate)": "high polyreactivity"},
      {"sequence": "QVQLVESGGGLVQAGGSLRLSCAASGFTFWRYAMGWSRQATGKERELVAVITWSGTRTYYADSVKGRFTISRDNAKNTVYLQMNSLKPEDTAVYYCAAYITDVAGRAYDYWGQGTQVTVSS", "polyreactivity (PSR sort gate)": "high polyreactivity"},
      {"sequence": "QVQLVESGGGLVQAGGSLRLSCAASGFTFWRYAMGWYRQAPGKERELVAAINWSGGSTNYADSVKGRFTISRDNAKNTVYLQMNSLKPEDTAVYYCAVDPYQNDPSRWYTYPRRGNYWGQGTQVTVSS", "polyreactivity (PSR sort gate)": "high polyreactivity"},
      {"sequence": "QVQLVESGGGLVQAGGSLRLSCAASGFTFWSYAMGWYRPAPGKERELVAAISRGGSTSYADSVKGRFTISRDNAKNTVYLLMNSLKPEDTAVYYCAALRPYRNDKGDYWGQGTQVTVSS", "polyreactivity (PSR sort gate)": "high polyreactivity"},
      {"sequence": "QVQLVESGGGLVQAGGSLRLSCAASGFTFWSYAMGWYRQAPGKERELVAGITIDGNTYYADSVKGRFTISRDNAKNTVYLQMNSLKPEDTAVYYCAAVAYYYGYDYWGQGTQVTVSS", "polyreactivity (PSR sort gate)": "low polyreactivity"},
      {"sequence": "QVQLVESGGGLVQAGGSLRLSCAASGFTFWSYTMGRYRQPHGKETELVADISWSGGSTYYADSVKGRFTISRDNAKNTVYLQMNSLKPEDTAVLYCNADGPFWARRSSRYYWGQGTQVTVSS", "polyreactivity (PSR sort gate)": "high polyreactivity"},
      {"sequence": "QVQLVESGGGLVQAGGSLRLSCAASGFTFWTYAMGWYRQAPGKERELVATISKRGGSTYYADSVKGRFTISRDNAMNTVYLQMNSLKPEVTAVYYCNRPSYGKEMDYWGQGTQVTVSS", "polyreactivity (PSR sort gate)": "high polyreactivity"},
      {"sequence": "QVQLVESGGGLVQAGGSLRLSCAASGFTFWTYARGWYRQAPGKERELVAAIDSGGSTYYADSVKGRFTISRDNAKNTVYLQMNSLKPEDTAVYYCNAGPSVTSGYDYDYWGQGTQVTVSS", "polyreactivity (PSR sort gate)": "low polyreactivity"},
      {"sequence": "QVQLVESGGGLVQAGGSLRLSCAASGFTFWWYAMGWYRQAPGKERELVASIDTRGGTYYADSVKGRFTISRDNAKNTVYLQMNRLKPEDTAVYYCNADGAYGNYRGGYWGQGTQVTVSS", "polyreactivity (PSR sort gate)": "high polyreactivity"},
      {"sequence": "QVQLVESGGGLVQAGGSLRLSCAASGFTFWYYAMGWYRQAPGKERELVAAITSGGTTYYADSVKGRFTISRDNAKNTVYLQMNSLKPEDTAVYYCAALLSIYRSQYDYWGQGTQVTVSS", "polyreactivity (PSR sort gate)": "high polyreactivity"},
      {"sequence": "QVQLVESGGGLVQAGGSLRLSCAASGFTFWYYAMGWYRQAPGKERELVATISRGGGSTYYADSVKGRFTISRDNAKNTVYLQMNSLKPEDTEVYYCNAVRVHAYSTGEYGYWGQGTQVTVSS", "polyreactivity (PSR sort gate)": "high polyreactivity"},
      {"sequence": "QVQLVESGGGLVQAGGSLRLSCAASGFTFWYYAMGWYRQAPGKERELVATITSGDSTKYADSVKGSFTISRDNAKNTVFLQMNSLNPEDNAVYYCAAEKVLPFIGYDYWGQGTQVTVSS", "polyreactivity (PSR sort gate)": "low polyreactivity"},
      {"sequence": "QVQLVESGGGLVQAGGSLRLSCAASGFTFYANTMGWYRQAPGKERELVAAISKSGGRTYYADSVKGRFTISRDNAKNTVYLQMNSLKPEDTAVYYCAASSGYKRNYWGQGTQVTVSS", "polyreactivity (PSR sort gate)": "high polyreactivity"},
      {"sequence": "QVQLVESGGGLVQAGGSLRLSCAASGFTFYAYAMGWYRQAPGKERELVAAISGRGTSTYYADSVKGRFTISRDNAKNTVYLQMNSLKPEDTAFYYCIKYPLRLYGYDYWGQGTQVTVSS", "polyreactivity (PSR sort gate)": "high polyreactivity"},
      {"sequence": "QVQLVESGGGLVQAGGSLRLSCAASGFTFYDYAMGWYRQAPGKQREFVAAITWSGSSTYYADSVKGRFTISRDNAMNTVYLQMKSMKPEDTEVYYCAVGPFRRRGHYPTYYRYGYWGQGTEVTVSS", "polyreactivity (PSR sort gate)": "high polyreactivity"},
      {"sequence": "QVQLVESGGGLVQAGGSLRLSCAASGFTFYDYDMGWSRQAPGKERELVATITWSGGRTYYADSVKGRFTISRDNAKNTVYLQMNSLKPEDTAVYYCAADEPDRDYGYWGQGTQVTVSS", "polyreactivity (PSR sort gate)": "low polyreactivity"},
      {"sequence": "QVQLVESGGGLVQAGGSLRLSCAASGFTFYGYAMGWYRPAPGKERELVAAISWSGGSTFYADSVKGRFTISRDNAKNTVYLQMNSQKAEDTAVDYCNAKVYPWGYYTSWRTVSPYDYWGQGTQVSVSS", "polyreactivity (PSR sort gate)": "high polyreactivity"},
      {"sequence": "QVQLVESGGGLVQAGGSLRLSCAASGFTFYGYAMGWYRQAPGKERELVAAISSSGGRTYYADSVKGRFTISRDNEKNTVYLQMNSLKPEDTAVYYCAAEYRSYRDGYWGLGTQVTVSS", "polyreactivity (PSR sort gate)": "high polyreactivity"},
      {"sequence": "QVQLVESGGGLVQAGGSLRLSCAASGFTFYGYGMGWYRQAPGKERELVAVITSGGSTKYADSVKGRFTISRDNAKNTVDLQMNSLKPEDTAVYYCNVVGGRYLYSAYDYWGQGTQVTVSS", "polyreactivity (PSR sort gate)": "low polyreactivity"},
      {"sequence": "QVQLVESGGGLVQAGGSLRLSCAASGFTFYGYTMGWYRQAPGKERELVAAISRSGGRTYYADSVKGRFTISRDNAKNTVYLQMNSLKPEDTAVYYCAGDSRTNGYDYWGQGTQVTVSS", "polyreactivity (PSR sort gate)": "high polyreactivity"},
      {"sequence": "QVQLVESGGGLVQAGGSLRLSCAASGFTFYGYVMGWYRQAPGKERELVASIRSRGSRTSYADSVKGRFTISRDNAKNTVYLQMNSLKPEDTAVYYCAASRGRLPYSSTSNGDYDYWGQGTQVTVSS", "polyreactivity (PSR sort gate)": "high polyreactivity"},
      {"sequence": "QVQLVESGGGLVQAGGSLRLSCAASGFTFYHYAMGWYRQAPGKERELVAAISRSAGSTYYADSVKGRFTISRDNAKNTVYLQMNSLKPEDTAVYYCAKVLRAKNSFDYWGQGTHVTVSS", "polyreactivity (PSR sort gate)": "high polyreactivity"},
      {"sequence": "QVQLVESGGGLVQAGGSLRLSCAASGFTFYIYAMGWYRQAPGKERELVAAITTTTGSTYYADSVKGRFTISRDNAKNTVYLQMNSLKPEDTAVYYCAAEGHYYYFGYYYWGQGTQVTVSS", "polyreactivity (PSR sort gate)": "low polyreactivity"},
      {"sequence": "QVQLVESGGGLVQAGGSLRLSCAASGFTFYKNAMGWYRQAPGKERELVATISSGGSTYYADSVKGRFTISRYNAKNTVYLQLNSLKPEDTAVYYCAARVHHGYYSISYYYWGQGTQVTVSS", "polyreactivity (PSR sort gate)": "high polyreactivity"},
      {"sequence": "QVQLVESGGGLVQAGGSLRLSCAASGFTFYLNAMGWYRQAPGKERELVAAISYSDGSTYYADSVKGRFTISRDNAKNTVYFQMNSLKPEDSAVYYCDADTTDPGGAFQLKDYWGQGTQVTVSS", "polyreactivity (PSR sort gate)": "high polyreactivity"},
      {"sequence": "QVQLVESGGGLVQAGGSLRLSCAASGFTFYLYAMGWYRQAPGKERELVAAISSGSTTYYADSVKGRFTISRDNAKNTVYLQMNSLKPEDTAVYYCNAYYVNYVSNYEYWGQGTQVTVSS", "polyreactivity (PSR sort gate)": "high polyreactivity"}
    ]}
  ]
}
